Where no end group is shown, it is not given here. Where only a bound is given, the exact number is not on record here.

This series in a line: Rheological properties at adjusted salt ionic strength. The series is classed as physicochemical. Particulars: for ionic strength adjustment up to which the rheological property of the solution increases (decreases above): 1% solutions, storage modulus at 1 rad/sec. The protocol:
Based on the visual observation of the effect of salt ionic strength on the properties of the peptide solutions, the effect on the rheological properties of the peptide solutions after adjusting their ionic strength level with NaCl to 0.7 M (PuraMatrix®), 0.2 M (KLD12) or 0.02 M (IEIK13), which is closely below the critical ionic strength at which each peptide becomes cloudy, was evaluated. If the ionic strength levels with NaCl of peptide solutions are higher than 0.9 M (PuraMatrix®), 0.3 M (KLD12) or 0.03 M (IEIK13), the peptide solution begin phase separation becoming cloudy and weak. The rheological property of PuraMatrix®, KLD12 and IEIK13 solutions was higher after adjusting their ionic strength level with NaCl to 0.7 M (PuraMatrix®), 0.2 M (KLD12) or 0.02 M (IEIK13), The results are shown in FIG. 10 for KLD12 1%, FIG. 11 for IEIK13 1%, and FIG. 12 for PuraMatrix® 1%, respectively. Frequency sweep tests were performed from 1 rad/s to 10 rad/s at 1 Pa.
Based on the results of the effect on the rheological properties of the peptide solutions after adjusting their ionic strength level with NaCl to 0.7 M (PuraMatrix®), 0.2 M (KLD12) or 0.02 M (IEIK13), the effect on the rheological properties of the peptide solution at various salt ionic strengths was evaluated. […] The results are shown in FIG. 13 for PuraMatrix® 1% solution and in FIG. 14 for IEIK13 1% solution. Frequency sweep tests were performed from 1 rad/sec to 10 rad/sec at 1 Pa and the storage modulus at 1 rad/sec was selected for data.
Based on the results of the effect on the rheological properties of the peptide solutions after adjusting their ionic strength levels, the effect on the rheological properties of the peptide hydrogels after DMEM treatment for 10 min was evaluated. […] The results are shown in FIG. 15 for PuraMatrix® 1% hydrogels and in FIG. 16 for IEIK13 1% hydrogels, both after DMEM treatment for 10 min. Frequency sweep tests were performed from 1 rad/sec to 10 rad/sec at 1 Pa and the storage modulus at 1 rad/sec was selected for data.
Based on the results of the effect on the rheological properties of the peptide solutions and hydrogels after adjusting their ionic strength levels with NaCl, the effect of various salts (KCl, MgCl2, and CaCl2) was also evaluated. The rheological property of PuraMatrix® solutions increases with ionic strength adjustment at 0.15 M of all the salts. Increases of the rheological property of PuraMatrix® solutions with various salts were not predominantly different. However, increases of the rheological property of PuraMatrix® solutions may vary depending on the salting out constant, K of each salt. Constant K is a constant in Cohen's equation: log S=B−KI, where S is solubility, B is idealized solubility, K is salting out constant, and I is ionic strength. With a higher value of constant K and ionic strength of salts, solubility of the peptide may decrease resulting in strong peptide self-assembly with increased hydrophobic effect and higher rheological properties of the peptide solution. The constant K of NaCl may be higher than the other salts. […] The results are shown in FIG. 17 for PuraMatrix® 1% solution before DMEM treatment, and in FIG. 18 for PuraMatrix® 1% hydrogels after DMEM treatment for 10 min.
In accordance with one or more embodiments, IEIK13, KLD12, and PuraMatrix® may be dissolved both in salt buffer such as NaCl and at an elevated pH level adjusted with alkali salt buffer such as NaOH to keep their salt ionic strength under their critical salt points as well as their pH level to about 2.5˜4.0, so that they may have stiffer properties. With respect to PuraMatrix®, […] and IEIK13, the peptide solutions are still clear with 0.9% NaCl (ionic strength: 0.15 M) at pH 3.4 adjusted with NaOH. […] The effect of salt ionic strength and pH adjustment on the rheological properties of PuraMatrix® 2.5% solution are shown in FIG. 20. […]

[1] abbreviates: 1% hydrogels after DMEM treatment for 10 min.

Take “Arg-Ala-Asp-Ala-Arg-Ala-Asp-Ala-Arg-Ala-Asp-Ala-Arg-Ala-Asp-Ala [PuraMatrix®]”: the “ionic strength adjustment up to which the rheological property of the solution increases (decreases above)” value was “up to 0.7 M”; the “ionic strength level with NaCl above which the solution begins phase separation becoming cloudy and weak” value (shortened to “ionic strength level”) is “higher than 0.9 M”. In addition, the “ionic strength adjustment up to which the rheological property of hydrogels increased (decreases above)” value under setting [1] is given as “up to 0.7 M”. Also, the “rheological property of hydrogels with ionic strength adjustment with various salts” value (1% hydrogels after DMEM treatment for 10 min, 0.15 M ionic strength) is recorded as “comparable to increases of the rheological property of PuraMatrix® solutions with various salts”. Besides, the “rheological property of solutions with NaCl compared with other salts” value (1% solution, 0.15 M ionic strength) is “slightly higher than those with KCl and CaCl2”. For the same substance, the “rheological property of solutions with ionic strength adjustment” value (1% solution, 0.15 M ionic strength of all the salts (NaCl, KCl, MgCl2, CaCl2)) is “increases”. In addition, the rheological property entry (2.5% solution with 0.9% NaCl (ionic strength: 0.15 M) at pH 3.4) is “stiffer than those of PuraMatrix control and PuraMatrix with only NaCl 0.9%”.
For “Ile-Glu-Ile-Lys-Ile-Glu-Ile-Lys-Ile-Glu-Ile-Lys-Ile [IEIK13]”, the “ionic strength adjustment up to which the rheological property of the solution increases (decreases above)” value was “up to 0.03 M”; the “ionic strength level” value was greater than 0.03 M. For the same substance, under setting [1], the “rheological property of hydrogels with ionic strength adjustment” value was “did not significantly change with ionic strength adjustment up to 0.025 M, while decreases above 0.03 M”.
As to KLDLKLDLKLDL [KLD12], the “ionic strength level” value is greater than 0.3 M.

The values are drawn from patent US10245299B2, “Autoassembling peptides for the treatment of pulmonary bulla” (3-D MATRIX, LTD., priority 2014, dated 2019).
